{
  "source": "patent US20250136674A1",
  "about": "(KYOTO UNIVERSITY, published 2025)",
  "binders": {"B1": {"name": "mouse anti-USAG-1 neutralizing antibody B48C (antibody, V domains shown)", "VH": "EVQLQQSGAELVRPGASVKLSCTASGFNIKDDYMHWVKQRPEQGLEWIGWIDPENGDTEYASKFQGKATITADTSSNTAYLQLSSLTSEDTAVYYCITPYYYGSSFSYWYFDVWGTGTTVTVSS", "VL": "DVLMTQTPLSLPVSLGDQASISCRSSQSIVHSNGNTYLEWYLQKPGQSPKLLIYKVSNRFSGVPDRFSGSGSGTDFTLKISRVEAEDLGVYYCFQGSHVPWTFGGGTKLEIKR", "notes": "Mouse monoclonal from a hybridoma (USAG-1 KO mouse immunised with rat USAG-1)"}},
  "biological_target": "T1, purified full-length recombinant mouse USAG-1 (mouse, UniProt Q9CQN4 24-206)",
  "T1 construct": "also called purified recombinant mouse USAG-1 protein",
  "T1 sequence (looked up)": "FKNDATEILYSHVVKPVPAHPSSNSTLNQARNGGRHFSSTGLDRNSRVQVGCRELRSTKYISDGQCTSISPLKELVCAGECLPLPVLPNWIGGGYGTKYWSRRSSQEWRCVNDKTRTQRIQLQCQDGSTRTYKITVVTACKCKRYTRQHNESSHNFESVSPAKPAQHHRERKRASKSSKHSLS",
  "assay": "BLI (Octet Red), antibody immobilised, mouse USAG-1 at 10, 30 and 100 nM, global fitting",
  "procedure": "For the antibody obtained in Example 1, affinity (KD values) was determined by using a BLI method based on Octet (registered trademark) Red (manufactured by Pall ForteBio). Specifically, each antibody was immobilized on the biosensor, the purified recombinant mouse USAG-1 protein was added at three different concentrations (10 nM, 30 nM, 100 nM), and binding and dissociation curves were obtained. The affinities were calculated by subjecting the obtained curves to global fitting with an analysis program attached to the Octet device.",
  "data": [
    {"binder": "B1", "values": [
      {"measurement": "Kd", "value": 3.26, "unit": "nM"}
    ]}
  ]
}
